The values that follow come from patent US12296066B2, “Methods of wound healing with Serp-1 polypeptides” (ARIZONA BOARD OF REGENTS ON BEHALF OF ARIZONA STATE …, priority 2018, dated 2025).

In data set [1] the test system is full thickness dorsal skin wound. The data set can be described thus: full-thickness splinted excisional wound healing model, planimetric wound closure. The data set is classed as in vivo, C57BL6/J mice. From the text:
The mouse dermal wound healing splinted model was used for these studies where the contraction is held by a donut-shaped splint remains the most widely accepted and extensively used model to study skin wound healing in mice (Galiano et al., Wound Repair Regen. 12 (2004) 485-492. doi:10.1111/j.1067-1927.2004.12404.x, Wang et al., Nat. Protoc. 8 (2013) 302-309. doi:10.1038/nprot.2013.002, Dunn et al., J. Vis. Exp. (2013) 1-6. doi:10.3791/50265).
Mice (N=29 mice) were anesthetized by intraperitoneal injection of a cocktail of 120 mg/kg ketamine and 6 mg/kg xylazine, 0.1 ml/25 g bodyweight and prepped by shaving an area of approximately 1×1 inch spanning from between the ears to the peak of the spine, centered between each shoulder. The shaved area was sterilized by two washes with 2% chlorhexidine gluconate solution (Dyna-Hex 2®, Xttrium Laboratories) and 70% ethanol using cotton swabs.
A 3.5 mm punch biopsy was performed centered in the shaved area to create the full-thickness wound excision. Treatment or control as saline solution or chitosan-collagen hydrogel preparation were applied to the wound using a hand-held micropipette. In brief, 13 mice were given saline inoculation at the time of injury, 6 mice were given Serp-1 at the time of injury at doses or 1 or 2 μg. Six mice were given 1 μg of Serp-1 and followed by second bolus at 3 days post wounding. A second group of 6 mice were given Serp-1/chitosan treatment applied at the time of injury and 6 mice were given chitosan gel alone.
A donut-shaped silicon splint (O.D. 15 mm; I.D. 5.0 mm; Culture-Well™ Grace Biolabs) with Tegaderm™ (3M Company) affixed to one side was coated with cyanoacrylate glue (Krazy Glue®) on the opposite side and carefully placed on the back of the mouse with the biopsy site centered within the inner hole. Six interrupted sutures (4-0 black Ethilon monofilament with a FS-2 reverse cutting needle; Ethicon, Inc.) were placed around the outer edge of the splint to complete the procedure. Mice were allowed to recover and returned to single-housed cages for the remainder of the trial.
On the day of the procedure (Day 0) and on every subsequent day of follow-up, for a total of 15 days, mice were collected and wounds assessed while awake. Digital images were collected using a Google Pixel model 1 or 3XL smartphone camera. Planimetric measurements of wound healing progress was performed in Image)/FIJI and calibrated to known pixel-to-size measurements (Schindelin et al., Nat. Methods. 9 (2012) 676-682. doi:10.1038/nmeth.2019).
Serp-1 has proven to be an effective modulator of coagulation pathways and immune responses in numerous animal models of vascular injury and transplant. […] In this study, the efficacy of topical Serp-1 application was tested in a full-thickness excisional model of wound healing (FIG. 2A). A 3.5 mm biopsy punch was used to create a full thickness dorsal skin wound in C57BL6/J wildtype mice. Wounds were produced through the entirety of the dermis without puncturing the panniculus carnosus. In an initial analysis, Serp-1 was applied in saline solution and compared to control saline solution alone, given directly to the wound bed. A silicone splint with a gas-permeable Tegaderm layer was sutured over the bed. The silicone splint prevented wound contraction, allowing direct visualization and photography of wound re-epithelialization during the course of a 15-day healing period (FIG. 2B).

The subject of data set [2] is CD31-positive vessels. The data set is described as follows: CD31 immunohistochemistry of peri-wound vascularization. The format is in vivo, C57BL6/J mice. From the text: (§1) Skin tissues were collected at day 1, 4, 7 and 15 and fixed in 10% neutral-buffered formalin for at least two days before tissue processing with a Leica TP1050 and embedded in paraffin with a Leica EG1160 embedding station. Blocks were serially sectioned using a Leica RM2165 microtome (4 μm sections) and stained with hematoxylin and eosin (H&E) by standard procedure. […]
(§2) Slides were imaged on an Olympus BX51 upright microscope equipped with an Olympus DP74 high-resolution camera operated by cellSens Dimensions v1.16. Images were collected as objective-calibrated TIFFs and subsequently analyzed and processed in Image)/FIJI (Schindelin et al., Nat. […] Positively stained cells were counted per high power field for each treatment group.
The blood vessels were analyzed by immunohistochemistry with antibodies against the endothelial marker CD31 (also called PECAM-1), a marker for endothelial cells commonly used to indicate wound bed blood vessels (Vanchinathan et al., Am. J. Clin. Pathol. (2015). doi:10.1309/AJCPRHM8CZH5EMFD). The number of positive staining vessels in different optical fields was quantified from four pairs of saline- and Serp-1-treated wounds. […]

In data set [3] the test system is Ly6G positive cells. The data set can be described thus: Ly6G immunohistochemistry, neutrophil infiltration in wounds. To be noted: day 4; p=0.110. The format is in vivo, C57BL6/J mice. From the text:
(§3) Skin tissues were collected at day 1, 4, 7 and 15 and fixed in 10% neutral-buffered formalin for at least two days before tissue processing with a Leica TP1050 and embedded in paraffin with a Leica EG1160 embedding station. Blocks were serially sectioned using a Leica RM2165 microtome (4 μm sections) and stained with hematoxylin and eosin (H&E) by standard procedure. Sections were additionally stained by immunohistochemistry (IHC) for CD31 (Abcam, #ab28364, 1:100), Ly6G (Invitrogen, #14-5931-82, 1:100), and arginase-1 (Cell Signaling, #93668, 1:200), and with Masson's trichrome (Masson, J Tech Methods. 12 (1929) 75-90) and Herovici's polychrome (Herovici, Stain Technol. 38 (1963) 204-6, Levame and Meyer, Pathol. Biol. (Paris). 35 (1987) 1183-8) as special stains for collagen.
Slides were imaged on an Olympus BX51 upright microscope equipped with an Olympus DP74 high-resolution camera operated by cellSens Dimensions v1.16. Images were collected as objective-calibrated TIFFs and subsequently analyzed and processed in Image)/FIJI (Schindelin et al., Nat. Methods. 9 (2012) 676-682. doi:10.1038/nmeth.2019). Positively stained cells were counted per high power field for each treatment group.
Therefor neutrophil infiltration was analyzed at sites of wound healing with and without treatment with Serp-1 at day 4 by immunohistochemistry with antibodies against Ly6G (FIG. 6A).

In data set [4] the test system is Arg-1 positive macrophages. The data set is described as follows: Arginase-1 immunohistochemistry, M2 macrophage differentiation in wounds. The data set is classed as in vivo, C57BL6/J mice.
From the text: as §1, §2
Additionally the differentiation of M2 macrophages was =analyzed (FIG. 6C), during wound-healing (Kotwal and Chien, Macrophage differentiation in normal and accelerated wound healing, in: Results Probl. Cell Differ., 2017. doi:10.1007/978-3-319-54090-0_14), by IHC with antibodies against Arginase-1 (EC3.5.3.1). […]

The subject of data set [5] is dermal collagen fibers. The data set can be described thus: quantitative collagen texture analysis, Masson's trichrome. The following applies: 15 days wound healing. The data set is classed as in vivo, C57BL6/J mice. The method, then:
as §1
Quantitative collagen texture analysis was performed in Image)/FIJI (Schindelin, Nat. […] Local thickness of collagen bundles was determined with the plugin “LocalThickness 4.0.2” using the methods described by Saito and Toriwaki (Saito, Pattern Recognit. 27 (1994) 1551-1565. doi:10.1016/0031-3203(94)90133-3), and by Hildebrand and Rüegsegger (Hildebrand, J. Microsc. 185 (1997) 67-75. doi:10.1046/j.1365-2818.1997.1340694.x.). Regularity of collagen bundles was determined with the plugin “Directionality” as previously reported (Sensini, Biofabrication. 9 (2017) 015025. doi:10.1088/1758-5090/aa6204).
During wound healing, collagen accumulation and organization are correlated with scar formation. […] Local scar thickness (FIG. 7C) and directionality (FIG. 7D) of collagen in scars were analyzed using ImageJ after Masson's trichrome staining under microscopic examination (20× magnification).

Data set [6] has as its system collagen bundles (Type 3 / Type 1). The data set can be described thus: Herovici's staining of collagen maturation in healed wounds. The format is in vivo, C57BL6/J mice.
From the text: as §3
Collagens play a crucial role in angiogenesis during tissue regeneration. It is well known that collagen I a central factor allowing for endothelial cells to initiate precapillary cord formation. In contrast increased deposition of collagen III reduces the density of blood vessels at sites of wound healing (Davis, Circ. Res. (2005). doi:10.1161/01.RES.0000191547.64391.e3, O'Rourke, Adv. Wound Care. (2018). doi:10.1089/wound.2018.0827). […]

The conditions of data set [7]: intravenous bolus injections, patients with unstable angina; cited from earlier work.

B1: Serp-1: Recombinant Serp-1 (m008.1L), secreted Myxomavirus glycoprotein serpin, expressed in CHO cells; SEQ ID NO: 1 (protein, listed as Homo sapiens)
chain: MKYLVLVLCLTSCACRDIGLWTFRYVYNESDNVVFSPYGLTSALSVLRIAAGGNTKREIDVPESVVEDSDAFLALRELFVDASVPLRPEFTAEFSSRFNTSVQRVTFNSENVKDVINSYVKDKTGGDVPRVLDASLDRDTKMLLLSSVRMKTSWRHVFDPSFTTDQPFYSGNVTYKVRMMNKIDTLKTETFTLRNVGYSVTELPYKRRQTAMLLVVPDDLGEIVRALDLSLVRFWIRNMRKDVCQVVMPKFSVESVLDLRDALQRLGVRDAFDPSRADFGQASPSNDLYVTKVLQTSKIEADERGTTASSDTAITLIPRNALTAIVANKPFMFLIYHKPTTTVLFMGTIT
Take B1: the “wound closure earlier compared to saline group” value in data set [1] (1.0 μg Serp-1, in the first week) is “four”. Moreover, the wound closure in data set [1] (1.0 μg/wound at day 0 and day 3, day 5) is listed as 40%; in data set [1] (2.0 μg Serp-1, day 5), “greater than 20%”; in data set [1] (2.0 μg Serp-1, day 7), 47%; in data set [1] (single dose treatment groups, day 5), 30%. In data set [1] (1.0 μg/wound/mouse, single dose, mean), the “days less to achieve same degree of closure as control group at day 7 (or 2.0 μg at day 5)” value is 3 days. For the same molecule, in data set [1] (2 μg/mouse, single topical dose day 0, p<0.0001), the “wound healing accelerated by” value is on record as “approximately 3 days”. Moreover, in data set [1] (Serp-1 [1+1]: 1 μg/mouse on Days 0 and 3 (FIG. 2C)), the “day of healing equivalent to saline alone on Day 7” value is 3 days. The faster closure rate in data set [1] (mouse model, conclusion) is 40%. Also, the scarring entry in data set [1] (mouse model, conclusion) was “reduction in scarring”. Besides, in data set [1] (repeated treatment group (1.0 μg day 0 + day 3), 15 days of observation), the completeness of closure entry was “more completely closure than other groups”. The “time to wound closure accelerated by, compared to saline” value in data set [1] (topical, doses of between 1 microgram and 2 micrograms, punch wounds on mouse back) fell in the range of 2 to 5 days. Also, in data set [2] (day 7, peri-wound area, saline control 10.0±2.5), the “number of vessels each image (CD31-positive)” value is listed as 36.3±4.9. For the same molecule, the “appearance of CD31-positive vessels” value in data set [2] (day 7, versus saline alone) is “appreciably more “mature” CD31-positive vessels, with increased length and thickness”. Moreover, the “Ly6G positive cells in healing tissues” value in data set [3] is reported as “non significant trend toward an increase”. Also, in data set [4] (day 4, compared to control wounds), the “density of Arg-1 positive macrophages” value is “significantly increased density”. The “density of Arg-1 positive (M2) macrophages” value in data set [4] (day 7, compared to untreated wounds) is “significant higher”. In addition, the collagen bundle thickness result in data set [5] is given as “increased bundle thickness”. For the same molecule, the collagen directionality entry in data set [5] is “more organized directionality”. Also, the “ratio of collagen types in treated wound” value in data set [6] (Herovici's stain, FIG. 8) is listed as “increasing the ratio of collagen III to collagen I”. In data set [6] (day 15, versus saline-treated wounds), the “collagen maturation by Herovici's stain” value was “greater degree of maturation”. Further, in data set [7], the safety result is “proved safe”.
